{
  "source": "patent US20230406950A1",
  "about": "(LYVGEN BIOPHARMA, published 2023)",
  "key": {"[1]": {"biological_target": "T1, human PD-L1 expressed on cells (human, UniProt Q9NZQ7 19-290)", "T1 construct": "whole, on cells; also called human PD-L1 expressed on CHO cells; Raji-PD-L1 cells", "T1 sequence (Q9NZQ7 19-290)": "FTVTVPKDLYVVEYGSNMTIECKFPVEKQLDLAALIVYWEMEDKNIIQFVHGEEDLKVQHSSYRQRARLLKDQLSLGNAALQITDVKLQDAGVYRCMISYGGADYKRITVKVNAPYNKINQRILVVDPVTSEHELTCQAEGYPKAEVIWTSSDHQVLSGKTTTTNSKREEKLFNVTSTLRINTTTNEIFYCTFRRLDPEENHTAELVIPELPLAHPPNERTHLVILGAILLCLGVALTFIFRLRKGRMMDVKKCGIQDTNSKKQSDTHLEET", "assay": "flow cytometry (FACS), MFI, CHO cells expressing human PD-L1", "description": "(§1) Exemplary anti-PD-1/CD137 bi-specific antibodies were analyzed by FACS for their binding properties to human PD-1 and/or human CD137 expressed on CHO cells. Briefly, cultured cells were harvested, counted and cell viability was evaluated using the Trypan Blue exclusion method. Viable cells were then adjusted to 2×10⁶ cells per mL in PBS containing 2% BSA. 100 μL of this cell suspension were further aliquoted per well into a V-bottom 96-well plate. […] After incubation for 2 hours at 4° C., cells were centrifuged (3 min, 1000× g), washed with 250 μL/well BSA-containing FACS Stain Buffer, resuspended and incubated for an additional 1 hour at 4° C. with 100 μL/well fluorochrome-conjugated anti-IgG antibody for detection of the bisepecific antibody. Cells were then washed with 250 μL/well BSA-containing FACS Stain Buffer, resuspended in 100 μL/well FACS Stain Buffer, acquired and analyzed using a FACS machine. Binding of the bispecific antibodies to human PD-1 or human CD137 expressing CHO cells were evaluated and the mean fluorescence intensity is plotted in histograms or dot plots.\n(§2) Exemplary anti-PD-L1/CD137 bi-specific antibodies were analyzed by FACS for their binding properties to human PD-L1 or human CD137 expressed on CHO cells, following the procedures disclosed in Examples 1 above."}, "[2]": {"biological_target": "T2, human CD137 expressed on cells (human, UniProt Q07011 24-255)", "T2 construct": "whole, on cells; also called 4-1BB; TNFRSF9", "T2 sequence (Q07011 24-255)": "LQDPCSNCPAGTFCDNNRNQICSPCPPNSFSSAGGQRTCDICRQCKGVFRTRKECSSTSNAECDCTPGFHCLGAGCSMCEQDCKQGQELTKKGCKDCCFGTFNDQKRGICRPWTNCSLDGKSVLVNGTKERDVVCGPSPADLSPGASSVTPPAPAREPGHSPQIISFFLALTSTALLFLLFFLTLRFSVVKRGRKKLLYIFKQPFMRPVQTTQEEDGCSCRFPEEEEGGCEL", "assay": "flow cytometry (FACS), MFI, CHO cells expressing human CD137", "description": "as §1, §2"}, "[3]": {"biological_target": "T3, human GITR expressed on cells (human, UniProt Q9Y5U5 26-241)", "T3 construct": "whole, on cells; also called TNFRSF18; CD357", "T3 sequence (looked up)": "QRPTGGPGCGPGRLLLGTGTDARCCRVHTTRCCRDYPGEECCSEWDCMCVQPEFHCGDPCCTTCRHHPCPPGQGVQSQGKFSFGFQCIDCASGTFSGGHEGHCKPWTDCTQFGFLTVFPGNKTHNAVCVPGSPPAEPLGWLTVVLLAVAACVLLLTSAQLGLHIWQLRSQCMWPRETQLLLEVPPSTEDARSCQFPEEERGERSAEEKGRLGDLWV", "assay": "flow cytometry (FACS), MFI, CHO cells expressing human GITR", "description": "FACS analysis was performed to evaluate the binding properties of exemplary anti-GITR humanized antibodies. Briefly, CHO cells over-expressing human GITR were harvested using trypsin-EDTA partial digestion followed by centrifugation at 1000 g for 3 minutes. The cells were re-suspended in cold PBS-BSA (2%) at 2×10⁶/mL and aliquoted to 100 μL/tube. The anti-GITR humanized antibodies were diluted in PBS-BSA (final concentrations were 0.01, 0.1, 1 and 10 μg/mL) and 50 μL of each was added to the CHO-GITR cells. The cell solutions were mixed and incubated at 4° C. in the dark for 2 hours. The cells were then washed with PBS-BSA twice. Secondary antibody conjugates (goat F(ab′)2 anti-human IgG—Fc (PE), pre-adsorbed, Abcam #ab98596) at 1/500 dilution and 100 μL/well was added and the cells were mixed and incubated 4° C. in dark for 1 hour. The cells were then washed twice with PBS-BSA, followed by fixation in 2% PFA/PBS, and were then subjected to FACS analysis.\n[0270] (b) Agonistic Activity for GITR"}, "[4]": {"biological_target": "T2, human CD137 expressed on cells", "assay": "FACS on CHO cells expressing human CD137 (MFI)", "description": "as §1, with “Anti-CD40/CD137” for “Exemplary anti-PD-1/CD137”, “CD40” for “PD-1”, “1000×g),” for “1000× g),”"}, "[5]": {"biological_target": "T4, human CD40 expressed on CHO cells (human, UniProt P25942 21-277)", "T4 construct": "whole, on cells", "T4 sequence (P25942 21-277)": "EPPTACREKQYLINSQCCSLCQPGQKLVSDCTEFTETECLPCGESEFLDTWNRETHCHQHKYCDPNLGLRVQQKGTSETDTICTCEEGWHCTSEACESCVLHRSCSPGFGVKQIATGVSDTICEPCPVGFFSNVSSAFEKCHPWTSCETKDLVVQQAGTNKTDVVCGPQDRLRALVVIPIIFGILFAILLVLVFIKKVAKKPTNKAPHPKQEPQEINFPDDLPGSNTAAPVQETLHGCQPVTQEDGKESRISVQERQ", "assay": "FACS on CHO cells expressing human CD40 (MFI)", "description": "as §1, with “Anti-CD40/CD137” for “Exemplary anti-PD-1/CD137”, “CD40” for “PD-1”, “1000×g),” for “1000× g),”"}, "[6]": {"biological_target": "T2, human CD137 expressed on cells", "assay": "FACS on CHO cells expressing human CD137 (MFI)", "description": "as §1, with “Anti-OX40/CD137” for “Exemplary anti-PD-1/CD137”, “OX40” for “PD-1”, “1000×g),” for “1000× g),”", "remark": "listed apart in the source"}, "[7]": {"biological_target": "T2, human CD137 expressed on cells", "assay": "FACS on CHO cells expressing human CD137 (MFI)", "description": "as §1, with “Anti-GITR/CD137” for “Exemplary anti-PD-1/CD137”, “GITR” for “PD-1”", "remark": "listed apart in the source"}, "[8]": {"biological_target": "T2, human CD137 expressed on cells", "assay": "FACS on CHO cells expressing human CD137 (MFI)", "description": "as §1, with “Anti-OX40/CD137” for “Exemplary anti-PD-1/CD137”, “OX40” for “PD-1”, “1000×g),” for “1000× g),”", "remark": "listed apart in the source"}, "[9]": {"biological_target": "T5, human PD-1 expressed on cells (human, UniProt Q15116 25-288)", "T5 construct": "whole, on cells; also called human PD-1 over-expressed on the CHO cells; Jurkat/NFkB-Luci/PD-1 cells", "T5 sequence (Q15116 25-288)": "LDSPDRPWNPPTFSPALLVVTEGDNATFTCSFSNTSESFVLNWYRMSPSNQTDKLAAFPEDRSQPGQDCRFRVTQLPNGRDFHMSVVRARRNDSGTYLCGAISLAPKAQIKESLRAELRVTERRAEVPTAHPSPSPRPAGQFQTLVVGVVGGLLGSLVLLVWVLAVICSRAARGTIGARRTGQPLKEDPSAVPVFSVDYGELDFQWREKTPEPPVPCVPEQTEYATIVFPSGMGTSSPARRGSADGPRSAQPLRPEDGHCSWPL", "assay": "flow cytometry (FACS), MFI, CHO cells expressing human PD-1", "summary_of_the_method": "(§3)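 Viable CHO cells, 2×10⁶ cells/mL in PBS with 2% BSA, incubated with bispecific antibodies for 2 h at 4° C. Bound antibody detected with fluorochrome-conjugated anti-IgG, 1 h at 4° C. Read-out is mean fluorescence intensity by flow cytometry.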"}, "[10]": {"biological_target": "T2, human CD137 expressed on cells", "assay": "FACS on CHO cells expressing human CD137 (MFI)", "description": "as §1, with “Anti-GITR/CD137” for “Exemplary anti-PD-1/CD137”, “GITR” for “PD-1”", "remark": "listed apart in the source"}, "[11]": {"biological_target": "T2, human CD137 expressed on cells", "assay": "FACS on CHO cells expressing human CD137 (MFI)", "description": "as §1, with “Anti-CD40/CD137” for “Exemplary anti-PD-1/CD137”, “CD40” for “PD-1”, “1000×g),” for “1000× g),”", "remark": "listed apart in the source"}, "[12]": {"biological_target": "T2, human CD137 expressed on cells", "assay": "flow cytometry (FACS), MFI, CHO cells expressing human CD137", "summary_of_the_method": "as §3", "remark": "listed apart in the source"}},
  "data": [
    {"binder": "Ly076 (antibody, V domains shown, Humanized anti-PD-L1 parent; also called anti-PD-L1 antibody Ly076) VH: QVQLVQSGAEVKKPGASVKVSCKASGYTFTDFWMSWVRQAPGQGLEWMGQIYPNTGTTHSNEKFKGRVTMTRDTSTSTVYMELSSLRSEDTAVYYCARSYHISTTPNWFAYWGQGTLVTVSS VL: DIQMTQSPSSLSASVGDRVTITCKASQNVYKKLEWYQQKPGKVPKVLIYHTNILQTGVPSRFSGSGSGTDYTLTISSLQPEDVATYYCYQWNSGPTFGGGTKVEIK", "values": [
      {"measurement": "binding result", "setting": "[1]", "value": "binds"},
      {"measurement": "binding result", "setting": "[2]", "value": "no binding (tested: 10 ug/ml)"}
    ]},
    {"binder": "TM676 (antibody, human IgG1, kappa, V domains shown, Humanized anti-GITR antibody; also called humanized LYV392 antibody (VH-1/IgG1 mut, VL-1/kappa)) VH: QVQLQESGPGLVKPSETLSLTCTVSGFSLTSYNVHWIRQPPGKGLEWIGVIWSGVRTDYNSVLKSRVTISVDTSKNQFSLKLSSVTAADTAVYYCARGTYDANYHDVMDAWGQGTMVTVSS VL: EIVLTQSPATLSLSPGERATLSCRASKSVRTGMHWYQQKPGQAPRLLIYGASNLESGIPARFSGSGSGTDFTLTISSLEPEDFAVYYCHQSWNHFTFGQGTKLEIKR", "values": [
      {"measurement": "binding result", "setting": "[3]", "value": "binds"}
    ]},
    {"binder": "Ly738 (bispecific antibody, human IgG1, kappa, Anti-CD40/CD137: Ly1630 heavy chain fused to Ly253 scFv (VL-VH); Ly1630 light chain) heavy: not shown light: DIQMTQSPSSLSASVGDRVTITCRASQDIRSNLNWYQQKPGGAVKLLIYYTSRLHSGVPSRFSGSGSGTDYTLTISSLQPEDFATYFCQQSEKLPRTFGGGTKVEIRRTVAAPSVFIFPPSDEQLKSGTASVVCLLNNFYPREAKVQWKVDNALQSGNSQESVTEQDSKDSTYSLSSTLTLSKADYEKHKVYACEVTHQGLSSPVTKSFNRGEC", "values": [
      {"measurement": "EC50 (read off the curve)", "setting": "[4]", "value": "~0.05", "unit": "µg/mL"},
      {"measurement": "EC50 (read off the curve)", "setting": "[5]", "value": "~0.08", "unit": "µg/mL"}
    ]},
    {"binder": "Ly739 (bispecific antibody, human IgG1, kappa, Anti-CD40/CD137: Ly1630 heavy chain fused to Ly253 scFv (VH-VL); Ly1630 light chain) heavy: not shown light: DIQMTQSPSSLSASVGDRVTITCRASQDIRSNLNWYQQKPGGAVKLLIYYTSRLHSGVPSRFSGSGSGTDYTLTISSLQPEDFATYFCQQSEKLPRTFGGGTKVEIRRTVAAPSVFIFPPSDEQLKSGTASVVCLLNNFYPREAKVQWKVDNALQSGNSQESVTEQDSKDSTYSLSSTLTLSKADYEKHKVYACEVTHQGLSSPVTKSFNRGEC", "values": [
      {"measurement": "EC50 (read off the curve)", "setting": "[4]", "value": "~0.05", "unit": "µg/mL"},
      {"measurement": "binding result", "setting": "[5]", "value": "binds"}
    ]},
    {"binder": "Ly1630 (antibody, V domains shown, Humanized anti-CD137 antibody; also called parent anti-CD137 antibody clone Ly1630; CD137 parental antibody Ly1630) VH: QVQLVQSGAEVKKPGASVKVSCKASGYTFAGFEMHWVRQAPGQGLEWMGAIDPKTGGTDYNQKFKDRVTMTRDTSISTAYMELSRLRSDDTAVYYCARDLGYFDVWGQGTLVTVSS VL: DIQMTQSPSSLSASVGDRVTITCRASQDIRSNLNWYQQKPGGAVKLLIYYTSRLHSGVPSRFSGSGSGTDYTLTISSLQPEDFATYFCQQSEKLPRTFGGGTKVEIR", "values": [
      {"measurement": "EC50 (read off the curve)", "setting": "[4]", "value": "~0.03", "unit": "µg/mL"},
      {"measurement": "EC50 (read off the curve)", "setting": "[6]", "value": "~100", "unit": "ng/mL"},
      {"measurement": "EC50 (read off the curve)", "setting": "[7]", "value": "~100", "unit": "ng/mL"},
      {"measurement": "EC50 (read off the curve)", "setting": "[8]", "value": "~90", "unit": "ng/mL"},
      {"measurement": "binding result", "setting": "[9]", "value": "no binding (tested: 10 ug/ml)"},
      {"measurement": "EC50 (read off the curve)", "setting": "[10]", "value": "~100", "unit": "ng/mL"},
      {"measurement": "EC50 (read off the curve)", "setting": "[11]", "value": "~0.03", "unit": "µg/mL"},
      {"measurement": "EC50 (read off the curve)", "setting": "[12]", "value": "~0.05", "unit": "µg/mL"},
      {"measurement": "binding result", "setting": "[1]", "value": "no binding (tested: 10 ug/ml)"}
    ]},
    {"binder": "TM392 (antibody, human IgG4 S228P, kappa, V domains shown, Chimeric anti-GITR antibody; also called chimeric antibody TM392 (LYV392 with human constant regions)) VH: QVQLKESGPGLVQPSETLSLTCNVSGFSLTSYNVHWVRQPPGKGLEWLGVIWSGVRTDYNSVLKSRLSIRWDSSKNQVFLKMNSLQSEDTATYYCARGTYDANYHDVMDAWGQGASVTVSS VL: DTVLTQSPALAVSPGERVTISCRASKSVRTGMHWYQQKPGQQPKLLVYGASNLESGVPARFSGSGSGTDFTLTIDPVEADDIATYFCHQSWNHFTFGSGTKLEIKR", "values": [
      {"measurement": "binding result", "setting": "[3]", "value": "binds"}
    ]},
    {"binder": "TM396 (antibody, human IgG4 S228P, kappa, V domains shown, Chimeric anti-GITR antibody from LYV396; also called chimeric antibody TM396 (IgG4)) VH: QVQLKESGPGLVQPSETLSLTCTVSGFSLTSYNVHWVRQPPGKGLEWLGVIWSGVRTDYNSVLKPRLSISRDSSKNKVFLNMNSLQSEDTATYYCARGTYDDNYHDVMDAWGQGASVTVSS VL: DTVLTQSPALAVSPGERVTISCRASKSVRTGMHWYQQKPGQQPKLLIYGASNLESGVPVRFSGSGSGTDFTLTIDPVEADDTATYFCQQSWNHFTFGSGTKLEIKR", "values": [
      {"measurement": "binding result", "setting": "[3]", "value": "binds"}
    ]}
  ]
}
